Tests used:
Test in all cases: multiplex microsphere immunoassay
GI.2 VLP = target: T1, GI.2 VLP (norovirus Hu/GI.2/Jingzhou/2013401/CHN, UniProt Q04542 1-546)
T1 construct: also called GI.2 Jingzhou
T1 chain: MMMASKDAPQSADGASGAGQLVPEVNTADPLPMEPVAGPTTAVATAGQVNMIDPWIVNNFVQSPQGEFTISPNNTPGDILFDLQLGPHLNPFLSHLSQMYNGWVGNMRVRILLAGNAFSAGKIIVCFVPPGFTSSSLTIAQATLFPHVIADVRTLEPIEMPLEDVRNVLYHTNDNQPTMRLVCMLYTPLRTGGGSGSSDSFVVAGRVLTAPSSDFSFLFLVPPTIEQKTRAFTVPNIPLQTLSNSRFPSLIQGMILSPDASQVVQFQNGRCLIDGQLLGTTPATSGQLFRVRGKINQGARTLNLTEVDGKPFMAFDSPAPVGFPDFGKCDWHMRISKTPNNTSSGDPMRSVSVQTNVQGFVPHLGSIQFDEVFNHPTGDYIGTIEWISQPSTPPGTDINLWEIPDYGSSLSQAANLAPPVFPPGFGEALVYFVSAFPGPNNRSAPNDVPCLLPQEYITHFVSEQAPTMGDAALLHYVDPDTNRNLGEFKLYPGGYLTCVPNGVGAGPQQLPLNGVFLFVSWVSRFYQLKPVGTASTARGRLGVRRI

GI.6 VLP = target: T2, GI.6 VLP (norovirus Hu/GI.6/TCH-099/USA/2003)
T2 construct: also called GI.6 USA
T2 chain: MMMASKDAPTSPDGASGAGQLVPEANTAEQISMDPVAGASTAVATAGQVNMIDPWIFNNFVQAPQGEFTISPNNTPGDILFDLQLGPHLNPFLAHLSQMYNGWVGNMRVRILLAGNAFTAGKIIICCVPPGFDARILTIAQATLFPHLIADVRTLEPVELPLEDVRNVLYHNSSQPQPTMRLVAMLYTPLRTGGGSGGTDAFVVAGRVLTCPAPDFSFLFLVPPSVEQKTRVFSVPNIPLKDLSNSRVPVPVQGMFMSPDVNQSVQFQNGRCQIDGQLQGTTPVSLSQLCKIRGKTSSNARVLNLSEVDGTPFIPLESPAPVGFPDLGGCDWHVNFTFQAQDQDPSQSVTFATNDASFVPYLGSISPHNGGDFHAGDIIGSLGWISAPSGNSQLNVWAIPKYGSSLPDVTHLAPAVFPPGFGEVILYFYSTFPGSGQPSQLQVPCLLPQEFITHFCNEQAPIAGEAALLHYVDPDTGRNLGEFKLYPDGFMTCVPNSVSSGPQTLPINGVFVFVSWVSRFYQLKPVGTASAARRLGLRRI

GI.5 VLP = target: T3, GI.5 VLP (norovirus …)
T3 construct: also called GI.5 Siklos
T3 chain: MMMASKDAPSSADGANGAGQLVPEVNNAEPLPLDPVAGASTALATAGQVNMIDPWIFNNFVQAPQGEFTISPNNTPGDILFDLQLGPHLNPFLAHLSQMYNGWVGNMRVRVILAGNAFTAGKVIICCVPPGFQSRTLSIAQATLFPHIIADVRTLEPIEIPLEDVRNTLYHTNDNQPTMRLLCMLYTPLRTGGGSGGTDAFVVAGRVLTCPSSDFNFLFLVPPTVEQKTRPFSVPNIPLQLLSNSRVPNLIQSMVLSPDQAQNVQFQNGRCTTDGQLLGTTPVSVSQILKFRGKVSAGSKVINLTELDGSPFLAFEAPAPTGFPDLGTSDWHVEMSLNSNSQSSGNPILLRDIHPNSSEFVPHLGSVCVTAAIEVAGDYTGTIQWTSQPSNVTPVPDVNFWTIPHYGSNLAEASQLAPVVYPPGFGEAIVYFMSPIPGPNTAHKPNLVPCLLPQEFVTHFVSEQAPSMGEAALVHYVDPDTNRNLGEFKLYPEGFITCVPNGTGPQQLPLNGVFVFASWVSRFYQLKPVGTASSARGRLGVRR

GI.7 VLP = target: T4, GI.7 VLP (norovirus Hu/GI.7/Providence191/2010/USA)
T4 construct: also called GI.7 Providence
T4 chain: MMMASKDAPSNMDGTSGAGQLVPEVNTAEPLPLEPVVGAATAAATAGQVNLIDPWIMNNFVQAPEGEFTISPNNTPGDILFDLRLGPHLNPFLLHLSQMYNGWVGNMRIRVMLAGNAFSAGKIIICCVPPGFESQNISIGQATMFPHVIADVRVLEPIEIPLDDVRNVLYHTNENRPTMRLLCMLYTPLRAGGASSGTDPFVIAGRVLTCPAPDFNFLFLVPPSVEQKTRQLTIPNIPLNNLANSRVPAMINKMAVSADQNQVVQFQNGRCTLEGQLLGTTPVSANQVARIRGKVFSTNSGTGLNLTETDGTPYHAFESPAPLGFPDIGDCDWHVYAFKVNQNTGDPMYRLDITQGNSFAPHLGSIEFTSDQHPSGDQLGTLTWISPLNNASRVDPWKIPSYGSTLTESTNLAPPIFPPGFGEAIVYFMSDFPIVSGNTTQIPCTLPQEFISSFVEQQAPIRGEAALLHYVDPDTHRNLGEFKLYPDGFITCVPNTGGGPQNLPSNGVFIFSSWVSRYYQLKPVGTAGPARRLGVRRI

GI.3 VLP = target: T5, GI.3 VLP (norovirus Hu/GI.3/JKPG_883/SWE/2007)
T5 construct: also called GI.3 Sweden
T5 chain: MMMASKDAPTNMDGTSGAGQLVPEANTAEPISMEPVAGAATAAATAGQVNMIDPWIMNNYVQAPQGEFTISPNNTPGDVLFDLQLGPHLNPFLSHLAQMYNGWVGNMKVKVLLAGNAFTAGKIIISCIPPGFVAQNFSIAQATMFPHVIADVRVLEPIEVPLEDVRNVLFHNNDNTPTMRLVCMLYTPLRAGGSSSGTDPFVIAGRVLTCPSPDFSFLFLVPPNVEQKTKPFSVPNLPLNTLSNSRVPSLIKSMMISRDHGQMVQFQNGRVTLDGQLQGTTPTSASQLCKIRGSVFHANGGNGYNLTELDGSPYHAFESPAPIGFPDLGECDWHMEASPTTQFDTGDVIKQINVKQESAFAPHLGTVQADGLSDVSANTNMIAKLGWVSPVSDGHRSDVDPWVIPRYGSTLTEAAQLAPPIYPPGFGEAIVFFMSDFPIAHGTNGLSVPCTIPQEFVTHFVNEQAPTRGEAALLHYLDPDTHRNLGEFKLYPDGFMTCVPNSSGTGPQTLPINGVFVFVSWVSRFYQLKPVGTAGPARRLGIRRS

GI.4 VLP = target: T6, GI.4 VLP (norovirus Hu/GI.4/1643/2008/US)
T6 construct: also called GI.4 US
T6 chain: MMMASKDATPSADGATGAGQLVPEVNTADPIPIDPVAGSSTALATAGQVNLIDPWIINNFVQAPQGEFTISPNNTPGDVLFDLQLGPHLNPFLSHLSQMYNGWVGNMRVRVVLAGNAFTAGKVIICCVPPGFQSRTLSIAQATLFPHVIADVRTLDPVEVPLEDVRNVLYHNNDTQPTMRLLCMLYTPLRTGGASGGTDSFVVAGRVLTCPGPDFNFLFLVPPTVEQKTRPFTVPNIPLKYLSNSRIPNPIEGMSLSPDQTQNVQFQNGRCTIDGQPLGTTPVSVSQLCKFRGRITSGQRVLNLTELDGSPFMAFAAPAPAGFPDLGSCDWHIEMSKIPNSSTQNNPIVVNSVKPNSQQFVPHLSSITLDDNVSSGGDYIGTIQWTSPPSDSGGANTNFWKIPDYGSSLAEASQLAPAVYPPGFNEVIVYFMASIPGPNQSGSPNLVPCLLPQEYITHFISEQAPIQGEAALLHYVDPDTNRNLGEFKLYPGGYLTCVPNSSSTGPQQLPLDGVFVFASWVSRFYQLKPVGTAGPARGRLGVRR

B1: human mAb 1227 (antibody, V domains shown)
VH: QVQLVQSGGGMVQPGGSLSLSCAASGFTLSNYAMTWVRQAPGKGLEWVSSIGGSGGTTYYADSVKGRFTISRDSSMNTLYLQMSNLRAGDTAVYYCAKDKTRTLRLGYSGMDVWGQGTTVTVSS
VL: DIRLTQSPSSLSASVGDRVTITCRASQSISSYLNWYQQKPGKAPDLLIYGASSLQSGVPSRFSGSGSGTDFTLTISSLQPEDFGNYYCQQSFSTPRTFGQGTKVEL
notes: also called A1227
GI.2 VLP
  EC50: 2 ng/mL
GI.6 VLP
  EC50: 2 ng/mL
GI.5 VLP
  EC50: 1 ng/mL
GI.7 VLP
  EC50: 21 ng/mL
GI.3 VLP
  EC50: 2 ng/mL
GI.4 VLP
  EC50: 2 ng/mL

From patent publication US20240402174A1 (Takeda / Millennium, published 2024)
